From publication PMC5716572, “Regulation of potassium dependent ATPase (kdp) operon of Deinococcus radiodurans”
Positions count from the first letter of the chain named.

Experiments:
[1] = molecular target: T1, RR (KdpE-like response regulator) (Deinococcus radiodurans R1 ATCC BAA-816, UniProt Q9RZP1 1-209); assay: EMSA; details: apparent; Hill coefficient 1.36 ± 0.17; unphosphorylated; 20 mM HEPES pH 7.6, 10 mM (NH4)2SO4, 30 mM KCl, 1 mM EDTA, 1 mM DTT, 0.2% Tween20, 37°C 1 h; 10% native PAGE in 0.5X TBE
T1 sequence: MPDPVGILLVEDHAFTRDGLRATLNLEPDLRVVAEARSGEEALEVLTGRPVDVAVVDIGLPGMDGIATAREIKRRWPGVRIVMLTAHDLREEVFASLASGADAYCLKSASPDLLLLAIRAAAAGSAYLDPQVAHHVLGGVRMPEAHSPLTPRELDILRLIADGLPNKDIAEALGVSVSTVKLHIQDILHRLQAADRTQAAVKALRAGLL

[2] = molecular target: T2, RR (KdpE-like response regulator) (Deinococcus radiodurans R1 ATCC BAA-816) (UniProt Q9RZP1); assay: EMSA; details: 20 mM HEPES pH 7.6, 10 mM (NH4)2SO4, 30 mM KCl, 1 mM EDTA, 1 mM DTT, 0.2% Tween20, 37°C 1 h; 10% native PAGE in 0.5X TBE
T2 sequence: T1 sequence with Q131R

[3] = molecular target: T1, RR (KdpE-like response regulator); assay: EMSA; 12% native PAGE; 20 mM HEPES pH 7.6, 10 mM (NH4)2SO4, 30 mM KCl, 1 mM EDTA, 1 mM DTT, 0.2% Tween20, 37°C 1 h; 10% native PAGE in 0.5X TBE; details: protein: recombinant; tags: C-terminal His tag (pET29b NdeI/XhoI, Ni-NTA; position implied by vector); chain copies: 2; label: DIG-ddUTP; blunt

With PkdpB-200 the Kd [1] was 3.62 µM.

In the case of “GGCCTTGATGAGGTTCTTGTCCTTGGCGTACTTGTTGAGCACGCGGGTGTACGCCGTCTTGAAGCCGGTCAGCGGGGTGCCGCCGTCGCGGGTGCGGATCATGTTGGCGTAGGTCAGGATGTTGTCGCTGGCGTAGGTGTTGGCGTGGATAAA (double strand) [nsDNA (DR_0906 fragment)]”, the binding [2] is reported as “no binding”.

B1: PkdpB-38 (dsDNA)
DNA 1: AACGGCGCTATGAGTCTTTCTTCTTTCCGGTGGCGGCC
DNA 2: GGCCGCCACCGGAAAGAAGAAAGACTCATAGCGCCGTT
B1: binds [3].
